Source: PMC6873191

Key:
[1] = target: full-length ClpC fused to the T25 fragment of B. pertussis adenylate cyclase (UniProt P37571); test: bacterial two-hybrid interaction assay (β-gal readout); settings: E. coli Δcya strain DHM1, Gp53 fused to T18, ClpC fused to T25, n = 3; for percent of parent: parent: 100; for response: parent: est. 21000, read off a plot
[2] = target: C-terminal FLAG-tagged ClpC (B. subtilis) (UniProt P37571)
[3] = target: full-length ClpC fused to the T25 fragment of B. pertussis adenylate cyclase (B. subtilis) (UniProt P37571); test: two-hybrid; modified bacterial two-hybrid: MecA-T18 and ClpC-T25 in E. coli DHM1 that holds a plasmid with Gp53 under the L-arabinose-inducible araB promoter; β-gal activity with and without L-arabinose

Row | Substance | percent of parent [1] | response [1] | further results
1 | Gp53 (WT) fused to a fragment of B. pertussis adenylate cyclase for the bacterial two-hybrid assay V87A | 44% | 9300 Miller Units | 
2 | N-terminal His6-tagged Gp53 of phage SPO1 (natural protein) |  |  | β-casein (3 μM) left intact after 90 min of in vitro degradation by ClpCP with MecA, with Gp53 against without Gp53 [2]: 10 fold
3 | Gp53 (WT) fused to a fragment of B. pertussis adenylate cyclase for the bacterial two-hybrid assay K101E |  | 23000 Miller Units | 
4 | Gp53 (WT) fused to a fragment of B. pertussis adenylate cyclase for the bacterial two-hybrid assay K101A |  | 22000 Miller Units | 
5 | Gp53 (WT) fused to a fragment of B. pertussis adenylate cyclase for the bacterial two-hybrid assay L95A | 48% | 10000 Miller Units | 
6 | Gp53 (WT) fused to a fragment of B. pertussis adenylate cyclase for the bacterial two-hybrid assay R94A |  | 21000 Miller Units | 
7 | Gp53 expressed from pSCBAD-Gp53 under the L-arabinose-inducible araB promoter (natural protein) |  |  | fold reduction of the β-gal activity of MecA-ClpC on induction of Gp53 [3]: 3 fold
8 | Gp53 (WT) fused to a fragment of B. pertussis adenylate cyclase for the bacterial two-hybrid assay L83A |  | 20000 Miller Units | 
9 | Gp53 (WT) fused to a fragment of B. pertussis adenylate cyclase for the bacterial two-hybrid assay R94E | 37% | 7700 Miller Units | 
